Blank lines part the entries; values can stand above or below the binder they belong to.
Columns and labels:
[1] = molecular target: T1, O772P 3-repeat recombinant protein (human); experiment: ELISA competition, plate-bound O772P 3-repeat; competitor shed CA 125/O772P
T1 construct: Repeats are residues 14-452 of the entry
T1 chain: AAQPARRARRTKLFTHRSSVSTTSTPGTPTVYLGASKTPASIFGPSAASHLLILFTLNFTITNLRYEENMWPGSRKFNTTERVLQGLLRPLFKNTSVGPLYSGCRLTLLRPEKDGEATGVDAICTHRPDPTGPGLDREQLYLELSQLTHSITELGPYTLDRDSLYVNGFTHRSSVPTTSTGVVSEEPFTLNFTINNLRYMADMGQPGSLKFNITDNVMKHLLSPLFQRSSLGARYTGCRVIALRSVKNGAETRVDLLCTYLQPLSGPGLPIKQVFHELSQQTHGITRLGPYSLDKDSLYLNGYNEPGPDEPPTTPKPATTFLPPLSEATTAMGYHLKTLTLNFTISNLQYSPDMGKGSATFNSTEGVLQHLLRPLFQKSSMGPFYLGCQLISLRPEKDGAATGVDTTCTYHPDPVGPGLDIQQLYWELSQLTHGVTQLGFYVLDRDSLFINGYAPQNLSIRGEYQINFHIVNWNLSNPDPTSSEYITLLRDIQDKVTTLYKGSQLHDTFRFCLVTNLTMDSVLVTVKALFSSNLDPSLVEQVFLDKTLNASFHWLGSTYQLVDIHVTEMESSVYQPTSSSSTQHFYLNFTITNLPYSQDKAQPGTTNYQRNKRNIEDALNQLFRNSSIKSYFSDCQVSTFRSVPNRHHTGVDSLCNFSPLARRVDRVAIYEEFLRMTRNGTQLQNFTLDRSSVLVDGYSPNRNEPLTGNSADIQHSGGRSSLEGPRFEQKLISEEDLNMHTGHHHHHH
Procedure: (§1) On the next day, the plates were washed with 200 μl 1×PBST (1× phosphate-buffered saline (PBS), 0.05% Tween 20) three times and blocked with 100 μl of 1×PBST containing 1% bovine serum albumin (BSA) for 2 hours at 37° C. […] After 1 hour incubation at 37° C., the plates were then washed with 1×PBST three times. For signal detection, 100 μl of HRP-conjugated sheep anti-mouse IgG (1:2000 dilution into 1×PBST+1% BSA, Amersham Biosciences) was added to each well and incubated for 1 hour at 37° C. The plates were washed again with 1×PBST three times. Finally, 100 μl¹ of a mixture of TMB substrate and H₂O₂ (1:1 ratio, KPL) was added into each well and the absorbance was measured at 405 nm with a plate reader (Molecular Devices Corp., Sunnyvale, Calif.). The assay was done in triplicate for each selected antibody and average values were calculated and presented. The percent inhibition compared to no competition was calculated for individual antibodies based on average values. Controls for blank and individual reagents were also included in each experiment.

[2] = molecular target: T2, O772P 3-repeat TM on transfected NIH/3T3 cells (human); experiment: flow cytometry, NIH/3T3 cells expressing O772P 3-repeat TM; Ab 0.5 µg/ml
T2 construct: also called NIH/3T3 O772P 3-repeat
T2 chain: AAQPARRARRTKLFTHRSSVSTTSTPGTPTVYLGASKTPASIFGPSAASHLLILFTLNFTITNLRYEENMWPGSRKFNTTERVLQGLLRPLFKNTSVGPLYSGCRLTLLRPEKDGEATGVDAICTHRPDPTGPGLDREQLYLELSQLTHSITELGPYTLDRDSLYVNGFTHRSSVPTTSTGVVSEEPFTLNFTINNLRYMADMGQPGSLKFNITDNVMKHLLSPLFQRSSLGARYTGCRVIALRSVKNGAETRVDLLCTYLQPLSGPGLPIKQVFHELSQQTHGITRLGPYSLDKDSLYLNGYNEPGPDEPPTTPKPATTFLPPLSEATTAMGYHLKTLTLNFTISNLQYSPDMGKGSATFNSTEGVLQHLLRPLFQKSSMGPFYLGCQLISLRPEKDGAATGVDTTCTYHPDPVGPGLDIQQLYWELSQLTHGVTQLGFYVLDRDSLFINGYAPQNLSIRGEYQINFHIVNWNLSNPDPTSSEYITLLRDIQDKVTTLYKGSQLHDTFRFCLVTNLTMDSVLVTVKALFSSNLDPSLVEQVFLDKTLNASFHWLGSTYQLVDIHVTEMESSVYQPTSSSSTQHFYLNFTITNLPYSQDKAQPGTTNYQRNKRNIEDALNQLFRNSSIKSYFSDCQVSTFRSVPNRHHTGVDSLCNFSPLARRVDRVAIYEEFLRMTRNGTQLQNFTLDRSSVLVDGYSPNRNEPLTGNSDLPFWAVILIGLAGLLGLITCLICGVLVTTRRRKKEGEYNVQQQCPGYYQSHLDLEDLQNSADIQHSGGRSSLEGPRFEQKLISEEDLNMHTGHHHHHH
Procedure: Cells (OVCAR-3 (ATCC Accession No. HTB-161), SK-OV3 (ATCC Accession No. HTB-77), NIH/3T3 (ATCC Accession No. CRL-1658), and NIH/3T3 cells transfected with a sequence that expresses O772P 3-repeat protein (SEQ ID NO:2)) were removed from culture plates by digestion with trypsin (0.25%). The cells were counted and viability was assessed by trypan blue (0.2%) exclusion. Cells were then centrifuged (500×g, 5 min) and resuspended in FACS buffer (1×DPBS containing 1% BSA and 0.1% sodium azide) to a concentration between 5-10×10⁷ cells/ml. Cells were then distributed at a volume of 100 μL/well into 96-well round bottom plates and centrifuged at 500×g for 3 minutes. Antibody supernatant was removed by aspiration, and 50 μl hybridoma supernatants diluted to 1 μg/ml and 0.5 μg/μl in FACS buffer and was added to each well containing cells. Murine IgG1 kappa (Sigma, St. Louis, Mo.) (either 2.0, 1.0, 0.5, 0.1 μg/μl) was included as a negative control and OC125 and M11 (DAKO Corp, Carpinteria, Calif.) were included as positive controls. Plates were incubated for 30 minutes at 4° C. with rocking. Cells were subsequently washed 2 times with FACS buffer (200 μl/well), with centrifugation and buffer aspiration following each wash. Goat anti-mouse IgG (Fc)-biotin (Sigma, St. Louis, Mo.) was diluted 1:1000 in FACS buffer and 50 μl was added to each well containing cells. Plates were incubated 30 minutes at 4° C. with rocking. Cells were then washed with FACS buffer as above. Streptavidin-Alexa-Four 488 (Molecular Probes, Eugene, Oreg.) was diluted 1:1000 into FACS buffer and 50 μl was added to each well containing cells. Plates were then incubated 30 minutes at 4° C. with […]. Cells were then washed with FACS buffer, as above. Cells were then resuspended in 1 ml of FACS buffer and transferred to Falcon 2052 tubes and analyzed on a Becton-Dickinson Immunocytometry Systems FACSCalibur flow cytometer (San Jose, Calif.).

[3] = molecular target: T1, O772P 3-repeat recombinant protein; experiment: ELISA competition, plate-bound O772P 3-repeat; no competitor
Procedure: as §1

absorbance w/shed CA 125/O772P competitor (25-fold w/w excess) [1]: 0.554 OD
% positive cells [2]: 63%
absorbance [3]: 0.619 OD
B1: monoclonal antibody 117.1 (antibody, V domains shown)
VH: QVTLKESGPGILQPSQTLSLTCSFSGFSLSTPGMGVGWIRQPSGKGLEWLAHIWWDDFKRDNPALKSRLTISKDTSSSQVFLKIASVDTADTATYYCVRVDGNFLSWYFDVWGAGTTVTVSS
VL: DAVMTQTPLSLPVSLGDQASISCRSSQSLVHSNGNTYLHWYLQKPGQSPKLLIYKVSNRFSGVPDRFSGSGSGTDFTLRISRVEAEDLGVYFCSQSRYVPWTFGGGTKLEIK
notes: Murine hybridoma antibody

absorbance w/shed CA 125/O772P competitor (25-fold w/w excess) [1]: 1.33 OD
% positive cells [2]: 75%
absorbance [3]: 1.29 OD
B2: monoclonal antibody 368.1 (antibody, V domains shown)
VH: EVQLQQSGPELVRTGASVKISCKASGYSFTGFYMHWVKQSLGKSLEWIGYVSCYTGATTYTQKFKGKATFTVDTSSSTAYMQLNSLTSEDSAVYYCAREGDYYSMDFWGQGTSVTVSS
VL: DVVMTQTPLSLPVSLGDQASISCRSSQSLERTNGNTYLHWYLQKPGQSPKLLIYKVSSRFSGVPDRFSGSGSGTDFTLKISRVEAEDLGIYFCSQTTHGPPTCGGGTKLEIK
notes: Murine hybridoma antibody

absorbance w/shed CA 125/O772P competitor (25-fold w/w excess) [1]: 0.735 OD
% positive cells [2]: 85%
absorbance [3]: 0.856 OD
B3: monoclonal antibody 501.1 (antibody, V domains shown)
VH: QIQLVQSGPELKKPGETVQISCKASGYIFTDYGMNWVKQAPGKGLKWMGCINTYTGETIYSDDFRGRFAISLETSASTAFIQINNLKNEDAATYFCARGNYRDAIDYWGQGTSVTVSS
VL: DIKMTQSPSSIYASLGERVTITCKASQDIKSYLSWYQQKPWKSPKTLIYYATTLADGVPSRFSGSGSGQDYSLIINSLESDDIATYFCLHHDESPFTFGSGTKLEI
notes: Murine hybridoma antibody

— patent US20050064518A1 (PURDUE PHARMA L P, published 2005)
